These results are taken from patent US20240084003A1 (SIMCERE ZAIMING PHARMACEUTICAL, published 2024).

In one assay the target is T1, human CD22 domain5-7-His (human, UniProt P20273 414-687).
T1 construct: also called hCD22 domain5-7-His; not shown: His tag
T1 sequence: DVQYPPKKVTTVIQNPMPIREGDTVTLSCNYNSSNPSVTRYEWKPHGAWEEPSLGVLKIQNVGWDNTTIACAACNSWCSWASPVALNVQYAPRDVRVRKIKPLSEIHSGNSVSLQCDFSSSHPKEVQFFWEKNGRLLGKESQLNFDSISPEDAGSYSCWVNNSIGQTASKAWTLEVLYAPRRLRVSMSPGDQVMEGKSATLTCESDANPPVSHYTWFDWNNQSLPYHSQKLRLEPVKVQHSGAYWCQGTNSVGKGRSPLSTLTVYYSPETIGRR
Description: ELISA, human CD22 domain5-7-His coated. In general terms: An ELISA detects its analyte on a solid surface through an enzyme-linked reagent.

Assay [1] deals with T2, monkey CD22 protein (ACROBiosystems, SI2-R52Ha) (monkey (rhesus monkey in paragraph 148), UniProt H9G1X2 18-686).
T2 construct: extracellular domain; also called monkey CD22-ECD; monkey CD22-ECD-His
T2 sequence: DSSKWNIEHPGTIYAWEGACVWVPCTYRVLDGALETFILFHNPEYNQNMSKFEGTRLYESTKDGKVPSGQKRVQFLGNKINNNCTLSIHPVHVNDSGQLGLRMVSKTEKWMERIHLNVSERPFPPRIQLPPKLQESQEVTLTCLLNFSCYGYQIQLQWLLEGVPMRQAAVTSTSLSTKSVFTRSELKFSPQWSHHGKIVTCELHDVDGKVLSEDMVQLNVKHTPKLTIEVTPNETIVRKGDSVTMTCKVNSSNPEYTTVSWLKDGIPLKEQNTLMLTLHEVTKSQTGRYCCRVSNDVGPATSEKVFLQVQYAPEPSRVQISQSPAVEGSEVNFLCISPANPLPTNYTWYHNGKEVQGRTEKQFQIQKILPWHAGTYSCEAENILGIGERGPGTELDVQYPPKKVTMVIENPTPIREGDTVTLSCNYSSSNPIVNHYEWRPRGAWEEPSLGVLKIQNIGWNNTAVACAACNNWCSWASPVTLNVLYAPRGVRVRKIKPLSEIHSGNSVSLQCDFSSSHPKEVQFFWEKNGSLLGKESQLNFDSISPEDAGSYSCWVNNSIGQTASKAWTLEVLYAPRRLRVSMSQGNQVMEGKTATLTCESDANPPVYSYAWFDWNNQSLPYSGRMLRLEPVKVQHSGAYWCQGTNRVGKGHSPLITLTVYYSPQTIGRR
Description: ELISA, monkey CD22-ECD-His coated. The method, then:
In order to detect the binding activity of CD22 human-murine chimeric antibodies to CD22 protein, the purified human CD22-ECD-His protein obtained in Example 2 was diluted with PBS to a final concentration of 2 μg/mL, and then added to 96-well ELISA plate at 100 μl/well. The plate was sealed with plastic film and incubated overnight at 4° C., the plate was washed 2 times with PBS the next day, and then a blocking solution [PBS+2% (w/w) BSA] was added for blocking at room temperature for 2 hours. […] After incubation at 37° C. for 2 hours, the plate was washed 3 times with PBS. HRP (horseradish peroxidase)-labeled secondary antibody (purchased from Sigma, catalog number: A0170) was added, and incubated at 37° C. for 2 hours, and the plate was washed 5 times with PBS. TMB substrate was added at 50 μl/well, and incubated at room temperature for 30 minutes, then a stop solution (1.0 N HCl) was added at 50 μl/well.
In order to detect the species cross-binding activity of the chimeric antibodies, an ELISA plate was coated with commercial murine CD22 protein (ACROBiosystems, catalog number: SI2-M52Ha) and monkey CD22 protein (ACROBiosystems, catalog number: SI2-R52Ha), respectively, and the ELISA detection was performed according to the method in Example 5.1.

For assay [2], the target named is T3, human CD22-ECD-His protein (human, UniProt P20273 20-687).
T3 construct: Made in house in HEK293E; also called hCD22-ECD-His; recombinant human CD22-ECD His protein; not shown: His tag
T3 sequence: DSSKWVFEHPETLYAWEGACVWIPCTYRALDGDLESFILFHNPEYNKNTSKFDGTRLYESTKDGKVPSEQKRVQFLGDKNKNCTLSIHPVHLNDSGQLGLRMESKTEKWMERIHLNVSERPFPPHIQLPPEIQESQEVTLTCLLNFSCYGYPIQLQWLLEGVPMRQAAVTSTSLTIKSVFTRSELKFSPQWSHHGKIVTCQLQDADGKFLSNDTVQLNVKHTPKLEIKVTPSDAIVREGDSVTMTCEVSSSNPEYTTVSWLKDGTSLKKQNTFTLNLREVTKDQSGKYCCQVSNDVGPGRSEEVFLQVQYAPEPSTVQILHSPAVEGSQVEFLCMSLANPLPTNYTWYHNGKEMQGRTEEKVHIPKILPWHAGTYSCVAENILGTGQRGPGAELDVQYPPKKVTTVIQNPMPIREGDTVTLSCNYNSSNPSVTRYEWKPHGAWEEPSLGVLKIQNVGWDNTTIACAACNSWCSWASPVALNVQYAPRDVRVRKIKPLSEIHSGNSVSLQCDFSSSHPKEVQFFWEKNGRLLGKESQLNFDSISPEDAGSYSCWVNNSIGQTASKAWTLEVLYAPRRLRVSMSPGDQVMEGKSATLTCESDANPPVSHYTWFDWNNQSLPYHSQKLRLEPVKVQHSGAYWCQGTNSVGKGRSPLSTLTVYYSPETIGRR
Briefly: ELISA, Ab 10.00 nM. A digest of the protocol: (§1)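 Human CD22-ECD-His is adsorbed overnight at 4 °C (2 μg/mL) and blocked with 2% BSA in PBS for 2 h. Chimeric antibody binding proceeds 2 h at 37 °C, followed by HRP-labeled secondary antibody under identical conditions and TMB detection.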

Assay [3] concerns the target T3, human CD22-ECD-His protein. Description: ELISA, Ab 0.00001 nM. A digest of the protocol: as §1
The target in assay [4] is T3, human CD22-ECD-His protein. Briefly: ELISA, Ab 0.0001 nM. In short, it runs like this:
as §1

Assay [5] addresses T3, human CD22-ECD-His protein. Description: ELISA, Ab 0.01 nM. In short, it runs like this:
as §1

In assay [6] the target is T3, human CD22-ECD-His protein. Description: ELISA, Ab 0.001 nM. A digest of the protocol:
as §1

For assay [7], the target named is T4, murine CD22 protein (ACROBiosystems, SI2-M52Ha) (murine, UniProt P35329 22-708).
T4 construct: extracellular domain; also called murine CD22-ECD; murine CD22-ECD-His
T4 sequence (looked up): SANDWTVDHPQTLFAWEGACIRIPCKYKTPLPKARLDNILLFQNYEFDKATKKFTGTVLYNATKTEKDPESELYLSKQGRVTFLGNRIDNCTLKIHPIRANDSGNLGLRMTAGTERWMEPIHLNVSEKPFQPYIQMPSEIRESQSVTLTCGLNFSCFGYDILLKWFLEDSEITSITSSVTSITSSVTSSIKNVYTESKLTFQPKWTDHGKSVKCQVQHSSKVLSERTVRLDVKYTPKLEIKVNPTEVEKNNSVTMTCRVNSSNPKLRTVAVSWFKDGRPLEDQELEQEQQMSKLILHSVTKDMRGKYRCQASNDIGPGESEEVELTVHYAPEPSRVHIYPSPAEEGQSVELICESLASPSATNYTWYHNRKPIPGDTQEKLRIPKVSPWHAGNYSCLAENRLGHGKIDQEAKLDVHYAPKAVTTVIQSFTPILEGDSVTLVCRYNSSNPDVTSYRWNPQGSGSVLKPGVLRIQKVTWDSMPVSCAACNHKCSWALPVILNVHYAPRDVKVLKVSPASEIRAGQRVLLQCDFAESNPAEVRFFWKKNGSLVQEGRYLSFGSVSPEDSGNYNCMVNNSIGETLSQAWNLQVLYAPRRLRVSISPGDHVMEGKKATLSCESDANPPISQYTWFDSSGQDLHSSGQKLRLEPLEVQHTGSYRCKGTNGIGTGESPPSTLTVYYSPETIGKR
Description: ELISA, murine CD22-ECD-His coated. In short, it runs like this:
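Direct ELISA: chimeric antibody binding to CD22 coated at 2 μg/mL, with a 37° C, 2 h antibody step and HRP/TMB detection.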

Assay [8] has as its target T3, human CD22-ECD-His protein. Description: ELISA, human CD22-ECD-His coated. A digest of the protocol:
as §1

The target of assay [9] is T3, human CD22-ECD-His protein. Briefly: ELISA, Ab 0.10 nM. A digest of the protocol: as §1
For assay [10], the target named is T3, human CD22-ECD-His protein. Briefly: ELISA, Ab 100.00 nM. In short, it runs like this: as §1

B1: F1.172.13 (antibody, human IgG1, kappa, V domains shown)
VH: QVTLKESGPGILQSSQTLSLTCSFSGFSLSTSGMGVSWIRQPSGKGLEWLAHIYWDDDKRYNPSLKSRLTISKDTSRNQVFLKITSVDTADTATYYCARAPPPNWDEYYFDYWGQGTTLTVSS
VL: DIQMTQSPASLSASVGETVTITCRASGNIHNSLAWYQQKQGKSPQLLVHNAKTLADGVPSRFSGSGSGTQYSLKINSLQPEDFGSYYCQHFWSTPPFGGGTKLEIKR
notes: Human-murine chimeric IgG1, kappa
On to B1, for which the binding result (in the assay with human CD22 domain5-7-His; in assay [7]) was “no binding (tested: 100 nM)” in each case. Besides, the “EC50 (read off the curve)” value in assay [1] and in [8] was ~0.03 nM each time. Besides, the OD450 in [2] is 2.51 OD450; in [3] it was 0.1 OD450; in assay [4] it was 0.17 OD450; in [5], 2.11 OD450; in [6], 0.74 OD450; in assay [9], 2.53 OD450. The OD450 in [10] turned out to be 2.87 OD450.

B2: F2.173.9 (antibody, human IgG1, lambda, V domains shown)
VH: EVQLVESGGDLVKPGESLKLSCEASGFTFSNYAMSWVRQTPDRRLEWVATISSIGSFTYYSDSVKGRFTISRDNVKSTLHLQMNNLKSGDTAIYFCARLGVYFDSWGQGTTLTVSS
VL: QLVLTQSSSASFSLGASAKLTCTLSSQHSTYTIEWYQQQPHKPPKFVMEIKKDGSHYTGDGIPDRFSGSSSGADRYLSISNIQPEDETIYICGVSDMIKDQFVYVFGGGTKVTVLG
notes: Human-murine chimeric IgG1, lambda
With B2, the binding result (with human CD22 domain5-7-His; in assay [7]) was “no binding (tested: 100 nM)” in each case. The EC50 (read off the curve) (commonly the midpoint of the concentration-response curve) was 0.1 to 1 nM in assay [1] and ~0.03 nM in [8]. Further, the OD450 in [2] turned out to be 1.97 OD450; in assay [3] it was 0.18 OD450; in [4] it was 0.32 OD450; in assay [5], 1.52 OD450; in assay [6], 0.65 OD450; in [9], 1.93 OD450. Moreover, the OD450 in assay [10] was 2.32 OD450.
